Results on 1 substance are retold here after publication PMC3064236.

The target of the experiment is Mcm2-7 heterohexamer (X. laevis (endogenous in egg extract)) (UniProt P55861). In words: SEC + other: glycerol gradient sedimentation.

For the substance “Mcm2-7 heterohexamer, P55861 1-886; P49739 1-807; P30664 1-863; P55862 1-735; Q5FWY4 1-821; Q91876 1-720”, the stoichiometry N (hexamers in the complex) is 2.
